{
  "source": "patent EP2727942A1",
  "binders": {"B1": {"name": "Antibody 34 (antibody, V domains shown)", "VH": "QEQLVESGGGLVQPEGSLTLTCKASGFSFSSGYYMCWVRQAPGKGLEWIACIYADSSESTYYASWAKGRFTISKTSSTTVTLQVTSLTAADTATYFCARWGTVAGYSTFNLWGPGTLVTVSS", "VL": "DVVMTQTPASVSEPVGGTVTIKCQASQSISTALAWYQQKPGQPPKLLIYFTSTLASGVSSRFKGSGSGAEFTLTISDLECADAATYYCQGYYYVTNFPFGGGTEVVVK"}, "B2": {"name": "Antibody 32 (antibody, V domains shown)", "VH": "QSVEESGGRLVTPGTPLTLTCTVSGFSLSSYDMSWVRQAPGKGLEWIGFIDGDSNTYDATWAKGRFTISKTSTTVDLKITSPTTEDTATYFCTRGFNLWGQGTLVTVSS", "VL": "DVVMTQTPASVSEPVGGTVTIKCQASQSISSYLAWYQQKPGQPPKLLIYKASTLASGVSSRFKGSGSGTEFTLTISDLECADAATYYCQCSAGGRSGIGGFGGGTEVVVK"}, "B3": {"name": "Antibody 52 (antibody, V domains shown)", "VH": "QSVEESGGRLVTPGTALTLTCTVSGFSLSSGDMSWVRQAPGKGLEWIGYIWSGVSTYYANWAKGRFTISKTSSTTVDLKMTSLTIEDTATYFCARVDFYSYVYSLWGPGTLVTVSS", "VL": "ALVMTQTPASVEAAVGGTVTIKCQASQSISSCLAWYQQKPGQPPKLLIYSASTLASGVPSRFKGSGSGTEYTLTISGVECADAATYYCQQHYTSNNIDNAFGGGTEVVVK"}, "B4": {"name": "Antibody 55 (antibody, V domains shown)", "VH": "QSLEESGGRLVTPGGSLTLTCTVSGSDISSYDMSWVRQAPGKGLEWIGYIWSGTTIYYASWPKGRFTISKTSSTTVDLKMTSLTTEDTATYFCAAINIYTYVYSLWGPGTLVTVSS", "VL": "AYDMTQTPASVEAAVGGTVTIKCQASESIYSSLAWYQQKSGQPPKLLIYLASTLASGVPSRFKGSGSGTDYTLTISGVECADAATYYCQQHYSGSNVDNAFGGGTEVVVK"}, "B5": {"name": "Antibody 56 (antibody, V domains shown)", "VH": "QSLEESGGRLVTPGTPLTLTCTASGFSLSSYDLSWVRQAPGKGLEWIAYIWSGDKTYYANWAKGRFTISKTSSTTVDLKMTSLTTEDTATYFCATVNIYSYVYSLWGPGTLVTVSS", "VL": "B4 VL with A13V, E27Q, Y30S, S31T, S32A, D70E, G94S, S95N"}, "B6": {"name": "Antibody 60 (antibody, V domains shown)", "VH": "B4 VH with I56T, S60N, P62A, A95T, I96V", "VL": "B4 VL with A13V, E27Q, Y30S, S31T, S32A, D70E, S95N"}, "B7": {"name": "Antibody 6 (antibody, V domains shown)", "VH": "QSVEESGGRLVTPGTPLTLTCTVSGFSLSSYTMGWVRQAPGKGLEYIGIINTGGYTYYASWAKGRFTISRTSTTVDLSMTSLTTEDTATYFCARVYPGSSCDLWGQGTLVTVSS", "VL": "DVVMTQTPASVSEPVGGTVTIKCQASQSISSSYLSWYQQKPGQPPKLLIYRASTLESGVPSRFKGSGSGTEFTLTISDLECADAATYYCQCTDYAGSYVGGAFGGGTEVVVK"}},
  "key": {"[1]": {"target": "recombinant Fc chimeric conjugate of human HER2 (human) (UniProt P04626)", "assay": "ELISA, coated antigen, B-cell supernatant, IgG 1143,3 ng/ml"}, "[2]": {"target": "recombinant Fc chimeric conjugate of human EGFR (human) (UniProt P00533)", "assay": "ELISA, coated antigen, B-cell supernatant, IgG 1143,3 ng/ml"}, "[3]": {"target": "recombinant Fc chimeric conjugate of human HER3 (human) (UniProt P21860)", "sequence (P21860 20-643, change not shown)": "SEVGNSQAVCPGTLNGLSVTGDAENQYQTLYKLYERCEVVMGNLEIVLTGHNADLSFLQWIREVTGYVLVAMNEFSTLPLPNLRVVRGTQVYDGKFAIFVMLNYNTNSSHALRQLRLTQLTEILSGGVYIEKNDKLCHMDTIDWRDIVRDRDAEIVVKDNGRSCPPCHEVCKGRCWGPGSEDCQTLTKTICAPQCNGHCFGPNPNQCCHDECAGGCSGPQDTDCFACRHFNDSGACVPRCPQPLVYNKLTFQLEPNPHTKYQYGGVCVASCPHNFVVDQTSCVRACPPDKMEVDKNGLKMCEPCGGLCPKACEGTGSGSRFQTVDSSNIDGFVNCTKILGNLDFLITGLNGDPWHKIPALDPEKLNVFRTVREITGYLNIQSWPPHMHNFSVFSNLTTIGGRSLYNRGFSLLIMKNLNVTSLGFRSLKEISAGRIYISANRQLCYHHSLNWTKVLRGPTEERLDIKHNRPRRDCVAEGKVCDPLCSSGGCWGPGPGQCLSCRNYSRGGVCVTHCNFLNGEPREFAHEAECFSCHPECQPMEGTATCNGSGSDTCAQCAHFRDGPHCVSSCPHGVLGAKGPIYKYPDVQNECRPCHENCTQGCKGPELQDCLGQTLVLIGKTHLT", "assay": "ELISA, coated antigen, B-cell supernatant, IgG 1170,2 ng/ml"}, "[4]": {"target": "recombinant Fc chimeric conjugate of human EGFR (human) (UniProt P00533)", "assay": "ELISA, coated antigen, B-cell supernatant, IgG 1170,2 ng/ml"}, "[5]": {"target": "recombinant Fc chimeric conjugate of human HER3 (human) (UniProt P21860)", "assay": "ELISA, coated antigen, B-cell supernatant, IgG 146,1 ng/ml"}, "[6]": {"target": "recombinant Fc chimeric conjugate of human EGFR (human) (UniProt P00533)", "assay": "ELISA, coated antigen, B-cell supernatant, IgG 146,1 ng/ml"}, "[7]": {"target": "recombinant Fc chimeric conjugate of human HER3 (human) (UniProt P21860)", "assay": "ELISA, coated antigen, B-cell supernatant, IgG 250,4 ng/ml"}, "[8]": {"target": "recombinant Fc chimeric conjugate of human EGFR (human) (UniProt P00533)", "assay": "ELISA, coated antigen, B-cell supernatant, IgG 250,4 ng/ml"}, "[9]": {"target": "recombinant Fc chimeric conjugate of human HER3 (human) (UniProt P21860)", "assay": "ELISA, coated antigen, B-cell supernatant, IgG 565,3 ng/ml"}, "[10]": {"target": "recombinant Fc chimeric conjugate of human EGFR (human) (UniProt P00533)", "assay": "ELISA, coated antigen, B-cell supernatant, IgG 565,3 ng/ml"}, "[11]": {"target": "recombinant Fc chimeric conjugate of human HER3 (human) (UniProt P21860)", "assay": "ELISA, coated antigen, B-cell supernatant, IgG 59,9 ng/ml"}, "[12]": {"target": "recombinant Fc chimeric conjugate of human EGFR (human) (UniProt P00533)", "assay": "ELISA, coated antigen, B-cell supernatant, IgG 59,9 ng/ml"}, "[13]": {"target": "recombinant Fc chimeric conjugate of human HER2 (human) (UniProt P04626)", "assay": "ELISA, coated antigen, B-cell supernatant, IgG 1912,4 ng/ml"}, "[14]": {"target": "recombinant Fc chimeric conjugate of human EGFR (human) (UniProt P00533)", "assay": "ELISA, coated antigen, B-cell supernatant, IgG 1912,4 ng/ml"}},
  "note": "Changes are numbered by the printed parent chain.",
  "data": [
    {"binder": "B1", "values": [
      {"measurement": "Optical density (OD)", "setting": "[1]", "value": 3.1, "unit": "OD"},
      {"measurement": "Optical density (OD)", "setting": "[2]", "value": 0.3, "unit": "OD"}
    ]},
    {"binder": "B2", "values": [
      {"measurement": "Optical density (OD)", "setting": "[3]", "value": 2.3, "unit": "OD"},
      {"measurement": "Optical density (OD)", "setting": "[4]", "value": 0.3, "unit": "OD"}
    ]},
    {"binder": "B3", "values": [
      {"measurement": "Optical density (OD)", "setting": "[5]", "value": 2.1, "unit": "OD"},
      {"measurement": "Optical density (OD)", "setting": "[6]", "value": 2.7, "unit": "OD"}
    ]},
    {"binder": "B4", "values": [
      {"measurement": "Optical density (OD)", "setting": "[7]", "value": 3.3, "unit": "OD"},
      {"measurement": "Optical density (OD)", "setting": "[8]", "value": 2.7, "unit": "OD"}
    ]},
    {"binder": "B5", "values": [
      {"measurement": "Optical density (OD)", "setting": "[9]", "value": 3.1, "unit": "OD"},
      {"measurement": "Optical density (OD)", "setting": "[10]", "value": 3.4, "unit": "OD"}
    ]},
    {"binder": "B6", "values": [
      {"measurement": "Optical density (OD)", "setting": "[11]", "value": 1, "unit": "OD"},
      {"measurement": "Optical density (OD)", "setting": "[12]", "value": 2.8, "unit": "OD"}
    ]},
    {"binder": "B7", "values": [
      {"measurement": "Optical density (OD)", "setting": "[13]", "value": 3.2, "unit": "OD"},
      {"measurement": "Optical density (OD)", "setting": "[14]", "value": 0.4, "unit": "OD"}
    ]}
  ]
}
